2 molecules from patent US7919104B2, “Functional epitopes of Streptococcus pneumoniae PsaA antigen and uses thereof” (priority 2005, dated 2011) can be followed below.

Entries after “also recorded” stand apart in the source; their conditions may differ.

One data set concerns Detroit 562 cells. Briefly: Competitive inhibition of adherence of rPsaA-coated fluospheres to Detroit 562 cells. The class given is cell-based, human. Conditions: competitor 100 μg (so in the source).
For data set [1], the target named is T1, P4 beads (Streptococcus pneumoniae serotype 4, UniProt P0A4G2, D258K/D259R).
T1 sequence (P0A4G2 251-278 D258K/D259R): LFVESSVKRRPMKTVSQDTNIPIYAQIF
Briefly: Mouse immunization: serum % IA of P4 beads (anti P4 activity). Conditions: sera 1:32 dilution. In kind it is in vivo. On the procedure: (§1) Serum inhibition of adherence assays were performed as previously described for the inhibition of pneumococcal adherence (Romero-Steiner). Two buffer solutions were found suitable for this type of assay: solution 1 (EMEM medium—Hanks buffered saline with Ca++ and Mg++ supplemented with 0.2% BSA) as previously reported (Romero-Steiner) or solution 2 (PBS 10 mM, pH7.2-7.4 supplemented with 1% BSA and 0.5% BSA for washes) as described below. Use of one buffer solution in preference to the other depended on availability of BSA (Sigma cat #A2153). Alternative preparations of BSA were evaluated but were not found suitable for this assay due to toxicity to the cell monolayer. Briefly, confluent monolayers of Detroit 562 cells were washed once with 130 μl/well of PBS buffer+0.5% BSA. A 45 μl volume of PBS buffer+1% BSA was added to each well and the plate was incubated while preparing serum dilutions in a replicate plate (U-bottom Costar). Serum dilutions in the replica plate could be performed in a 2-fold or 3-fold dilution scheme. For the 2-fold dilution scheme, a 10 μl volume of test or control serum was added to the first row of wells (B2-B11) already containing 70 μl of PBS+1% BSA. A 40 μl volume of PBS+1% BSA was added to the remainder of the wells including the outer perimeter. The sera from row B was serially diluted into rows C-F with a multichannel pipetor set at 40 μl (2-fold). The last 401 was discarded into the waste. Serum was not added to the adherence control wells (row G or column 11). A 20 μl volume of the optimal fluosphere dilution (usually 1:100 or 1:150, containing ˜3,100 fluospheres) was added to each well, including serum-free controls. The fluosphere suspension was sonicated for 3 minutes prior to addition to the center of the wells to generate a single fluosphere suspension. The microtiter plate was mixed by tapping the sides gently and incubated for 15 minutes at 37° C., 5% CO2. At the end of the incubation period, 55 μl/well was replica plated into the microtiter plate containing the washed monolayers containing 45 μl of PBS+1% BSA. The final well volume was always adjusted to 100-μl volume regardless of the serum dilution scheme used (2-fold or 3-fold) to control the reproducibility of fluosphere adherence The plate was mixed by tapping the sides gently and incubated for 2 hours at 37° C., 5% CO2. Following incubation, plates were washed 5 times with 130 μl/well of PBS+0.5% BSA. The plates were allowed to dry before reading in a fluorometer (BioTek, FLX 800) at 485 nm for excitation and emission at 520 nm. The percent inhibition of adherence (IA) was calculated as compared to adherence controls. The following formula was used: % IA=100-(test well FU×100)/controls mean FU.

Data set [2] addresses T2, P4 beads (Streptococcus pneumoniae serotype 4, UniProt P0A4G2).
T2 sequence (P0A4G2 251-278 D258K/D259R): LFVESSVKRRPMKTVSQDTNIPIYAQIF
The data set is described as above. In kind it is in vivo. On the procedure:
as §1

Data set [3] concerns HL-60, RAW 264.7 and Detroit 562 cells. Kind of data set: P4 activation of phagocytes and epithelial cells (cytokine release, TEM). The class given is cell-based. As for the experimental part:
Cell suspensions of HL-60 (promyelocytes) and RAW 264.7 (monocytes), and Detroit 562 cells (nasopharyngeal epithelial cells) were centrifuged at 1000 rpm-10 min and the pellet was resuspended in 1 ml PBS buffer. To this, P4 solution (1 mg/ml) was added at 10% (v/v) concentration, mixed by inverting few times and incubated at 37° C., 5% CO2 for 15 min (HL-60 and RAW) or 30 min (Detroit 562). After incubation, the cells were centrifuged again and the supernatant was analyzed for cytokines and the cell pellet was washed once in PBS, fixed in 2% glutaraldehyde and processed for transmission electron microscopic (TEM) analysis.

A further data set has as its target T3, PsaA beads (Streptococcus pneumoniae serotype 4, UniProt P0A4G2).
T3 construct: Both, rPsaA (MW 34,079 daltons) and the synthetic peptides were non-lipidated; purchased Aventis-Pasteur, Toronto, Ontario, Canada (donated)
T3 sequence (P0A4G2 20-309): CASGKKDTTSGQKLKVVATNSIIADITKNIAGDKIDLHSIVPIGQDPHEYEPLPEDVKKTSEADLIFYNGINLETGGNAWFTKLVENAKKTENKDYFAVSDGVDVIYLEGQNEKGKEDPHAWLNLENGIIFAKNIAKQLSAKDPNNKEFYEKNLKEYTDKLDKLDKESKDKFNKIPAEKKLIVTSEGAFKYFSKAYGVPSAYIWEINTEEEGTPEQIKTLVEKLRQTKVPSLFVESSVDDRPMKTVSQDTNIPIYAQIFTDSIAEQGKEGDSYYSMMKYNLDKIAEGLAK
Briefly: Mouse immunization: serum % IA of PsaA beads (anti PsaA activity). The class given is in vivo. On the procedure:
as §1

The mark [4] stands for this setting: mice serum dilution factor 8, 7th day.
[5] abbreviates: mice serum dilution factor 8, 11th day.
Where [6] appears, read: mice serum dilution factor 16, 7th day.
Setting [7] is: mice serum dilution factor 16, 11th day.
[8] abbreviates: mice serum dilution factor 32, 7th day.
Where [9] appears, read: mice serum dilution factor 32, 11th day.
[10] abbreviates: mice serum dilution factor 64, 7th day.
[11] abbreviates: mice serum dilution factor 64, 11th day.
Setting [12] is: mice serum dilution factor 128, 7th day.
Setting [13] is: mice serum dilution factor 128, 11th day.
Setting [14] is: mice serum dilution factor 256, 7th day.
The mark [15] stands for this setting: mice serum dilution factor 256, 11th day.
Where [16] appears, read: mice serum dilution factor 512, 7th day.
Setting [17] is: mice serum dilution factor 512, 11th day.
Where [18] appears, read: mice serum dilution factor 1024, 7th day.
Setting [19] is: mice serum dilution factor 1024, 11th day.
Where [20] appears, read: mice serum dilution factor 2048, 7th day.
Where [21] appears, read: mice serum dilution factor 2048, 11th day.
Where [22] appears, read: mice serum dilution factor 4096, 7th day.
Setting [23] is: mice serum dilution factor 4096, 11th day.
The mark [24] stands for this setting: P4 solution (1 mg/ml) at 10% (v/v), 15 or 30 min.

On to “LFVESSVKRRPMKTVSQDTNIPIYAQIF [P4, non-branched synthetic peptide, PsaA amino acid residues 251 to 278 with DD changed to KR]”, for which, in the data set on Detroit 562 cells, the “reduction in FU of PsaA-coated beads” value was 68%. Also, the “inhibition of adherence detected in sera from immunized mice” value with P4 beads [1] is listed as “Up to 45%”. The “Anti P4 activity (% IA of P4 beads)” value was 81% with P4 beads [2] (setting [4]); 95% with P4 beads [2] (setting [5]); 40% in the data set with P4 beads [2] (setting [6]); 44% with P4 beads [2] (setting [7]); 31% with P4 beads [2] (setting [8]); 45% with P4 beads [2] (setting [9]). In addition, the “Anti P4 activity (% IA of P4 beads)” value with P4 beads [2] (setting [10]) is 0%; in the data set with P4 beads [2] (setting [11]) it was 4%; with P4 beads [2] (setting [12]) it was 0%; with P4 beads [2] (setting [13]), 0%; in the data set with P4 beads [2] (setting [14]), 0%; with P4 beads [2] (setting [15]) it was 0%. The “Anti P4 activity (% IA of P4 beads)” value with P4 beads [2] (setting [16]), with P4 beads [2] (setting [17]), with P4 beads [2] (setting [18]), with P4 beads [2] (setting [19]), with P4 beads [2] (setting [20]) and with P4 beads [2] (setting [21]) was 0% throughout. Besides, the “Anti P4 activity (% IA of P4 beads)” value with P4 beads [2] (setting [22]) and with P4 beads [2] (setting [23]) was 0% each time. The “bacterial adherence to P4 treated NP cells” value in data set [3] (Detroit 562 NP cells exposed to P4 solution) is listed as “enhancement in bacterial adherence”. Besides, the EGF release/production result in data set [3] (setting [24]) is reported as “brings down EGF production; also recorded: down regulated”. Besides, the FGFbasic release/production result in data set [3] (setting [24]) is listed as “up regulated”. Besides, the IL8 release/production entry in data set [3] (setting [24]) was “down regulated”. Also, the “cell morphology by TEM and light photomicrographs” value in data set [3] (setting [24]) is on record as “phagocytic activation”.

B1: rPsaA: purified recombinant pneumococcal surface adhesin A, non-lipidated, donated by Aventis-Pasteur (protein)
chain: T3 sequence (P0A4G2 20-309)
B1: the “Anti PsaA activity (% IA of PsaA beads)” value with PsaA beads (setting [4]) is recorded as 84%; in the data set with PsaA beads (setting [5]), 79%; with PsaA beads (setting [6]), 47%; in the data set with PsaA beads (setting [7]) it was 37%; with PsaA beads (setting [8]) it was 42%; with PsaA beads (setting [9]), 34%. Further, the “Anti PsaA activity (% IA of PsaA beads)” value in the data set with PsaA beads (setting [10]) came out at 0%; with PsaA beads (setting [11]) it was 11%; with PsaA beads (setting [12]) it was 0%; with PsaA beads (setting [13]) it was 1%; with PsaA beads (setting [14]) it was 0%; with PsaA beads (setting [15]), 0%. The “Anti PsaA activity (% IA of PsaA beads)” value with PsaA beads (setting [16]) is reported as 0%; in the data set with PsaA beads (setting [17]), 0%; with PsaA beads (setting [18]), 0%; with PsaA beads (setting [19]) it was 0%; with PsaA beads (setting [20]), 0%; in the data set with PsaA beads (setting [21]) it was 4%. The “Anti PsaA activity (% IA of PsaA beads)” value was 0% with PsaA beads (setting [22]) and 18% in the data set with PsaA beads (setting [23]).
